From US20220298260A1 (MYTHIC THERAPEUTICS, published 2022)

Target: T1, FOLR1 (R&D Systems, Cat #5646-FR) (human, UniProt P15328 25-233)
T1 construct: Bought soluble protein; also called Folate Receptor 1
Experiment: BLI, IgG on anti-human Fc sensor, 50 nM FOLR1

T1 sequence (P15328 25-233 limits assumed): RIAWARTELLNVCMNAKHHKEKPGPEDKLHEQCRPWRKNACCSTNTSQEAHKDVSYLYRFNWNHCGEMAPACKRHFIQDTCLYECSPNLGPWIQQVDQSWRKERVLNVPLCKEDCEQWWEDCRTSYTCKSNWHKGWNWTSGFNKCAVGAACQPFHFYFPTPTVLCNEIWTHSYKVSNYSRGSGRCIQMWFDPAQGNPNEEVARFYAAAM

Row | Binder | binding result
1 | MYT0598 (antibody, V domains shown, IgG) VH: QVQLVQSGAEVVKPGASVKISCKHSGYTFTGYFMNWVKQSPGQSLEWIGRIHPYDGDTFYNQKFQGKATLTVDKSSNTAHMELLSLTSEDFAVYYCTRYDGSRAMDYWGQGTTVTVSS VL: DIVLTQSPLSLAVSLGQPAIISCKASQSVSFAGTSLMHWYHQKPGQQPRLLIYRASNLEAGVPDRFSGSGSKTDFTLTISPVEAEDAATYYCQQSREYPYTFGGGTKLEIK | binds
2 | MYT0604 (antibody, V domains shown, IgG) VH: QVQLVQSGAEVVKPGASVKISCKASGYTFHGYFMNWVKQSPGQSLEWIGRIHPYDGDTFYNQKFQGKATLTVDKSSNTAHMELLSLTSEDFAVYYCTRYDGSRAMDYWGQGTTVTVSS VL: DIVLTQSPLSLAVSLGQPAIISCKASQSVSFAGTSLMHWYHQKPGQQPRLLIYRASNLEAGVPDRFSGSGSKTDFTLTISPVEAEDAATYYCQQSREYPYTFGGGTKLEIK | binds
3 | MYT0600 (antibody, V domains shown, IgG) VH: QVQLVQSGAEVVKPGASVKISCKASHYTFTGYFMNWVKQSPGQSLEWIGRIHPYDGDTFYNQKFQGKATLTVDKSSNTAHMELLSLTSEDFAVYYCTRYDGSRAMDYWGQGTTVTVSS VL: DIVLTQSPLSLAVSLGQPAIISCKASQSVSFAGTSLMHWYHQKPGQQPRLLIYRASNLEAGVPDRFSGSGSKTDFTLTISPVEAEDAATYYCQQSREYPYTFGGGTKLEIK | binds
4 | MYT0607 (antibody, V domains shown, IgG) VH: QVQLVQSGAEVVKPGASVKISCKASGYTFTGYHMNWVKQSPGQSLEWIGRIHPYDGDTFYNQKFQGKATLTVDKSSNTAHMELLSLTSEDFAVYYCTRYDGSRAMDYWGQGTTVTVSS VL: DIVLTQSPLSLAVSLGQPAIISCKASQSVSFAGTSLMHWYHQKPGQQPRLLIYRASNLEAGVPDRFSGSGSKTDFTLTISPVEAEDAATYYCQQSREYPYTFGGGTKLEIK | binds
5 | MYT0610 (antibody, V domains shown, IgG) VH: QVQLVQSGAEVVKPGASVKISCKASGYTFTGYFMNWVKQSPGQSLEWIGHIHPYDGDTFYNQKFQGKATLTVDKSSNTAHMELLSLTSEDFAVYYCTRYDGSRAMDYWGQGTTVTVSS VL: DIVLTQSPLSLAVSLGQPAIISCKASQSVSFAGTSLMHWYHQKPGQQPRLLIYRASNLEAGVPDRFSGSGSKTDFTLTISPVEAEDAATYYCQQSREYPYTFGGGTKLEIK | binds
6 | MYT0618 (antibody, V domains shown, IgG) VH: QVQLVQSGAEVVKPGASVKISCKASGYTFTGYFMNWVKQSPGQSLEWIGRIHPYDGDHFYNQKFQGKATLTVDKSSNTAHMELLSLTSEDFAVYYCTRYDGSRAMDYWGQGTTVTVSS VL: DIVLTQSPLSLAVSLGQPAIISCKASQSVSFAGTSLMHWYHQKPGQQPRLLIYRASNLEAGVPDRFSGSGSKTDFTLTISPVEAEDAATYYCQQSREYPYTFGGGTKLEIK | binds
7 | MYT0608 (antibody, V domains shown, IgG) VH: QVQLVQSGAEVVKPGASVKISCKASGYTFTGYFHNWVKQSPGQSLEWIGRIHPYDGDTFYNQKFQGKATLTVDKSSNTAHMELLSLTSEDFAVYYCTRYDGSRAMDYWGQGTTVTVSS VL: DIVLTQSPLSLAVSLGQPAIISCKASQSVSFAGTSLMHWYHQKPGQQPRLLIYRASNLEAGVPDRFSGSGSKTDFTLTISPVEAEDAATYYCQQSREYPYTFGGGTKLEIK | binds
8 | MYT0606 (antibody, V domains shown, IgG) VH: QVQLVQSGAEVVKPGASVKISCKASGYTFTGHFMNWVKQSPGQSLEWIGRIHPYDGDTFYNQKFQGKATLTVDKSSNTAHMELLSLTSEDFAVYYCTRYDGSRAMDYWGQGTTVTVSS VL: DIVLTQSPLSLAVSLGQPAIISCKASQSVSFAGTSLMHWYHQKPGQQPRLLIYRASNLEAGVPDRFSGSGSKTDFTLTISPVEAEDAATYYCQQSREYPYTFGGGTKLEIK | binds
9 | MYT0619 (antibody, V domains shown, IgG) VH: QVQLVQSGAEVVKPGASVKISCKASGYTFTGYFMNWVKQSPGQSLEWIGRIHPYDGDTHYNQKFQGKATLTVDKSSNTAHMELLSLTSEDFAVYYCTRYDGSRAMDYWGQGTTVTVSS VL: DIVLTQSPLSLAVSLGQPAIISCKASQSVSFAGTSLMHWYHQKPGQQPRLLIYRASNLEAGVPDRFSGSGSKTDFTLTISPVEAEDAATYYCQQSREYPYTFGGGTKLEIK | binds
10 | MYT0602 (antibody, V domains shown, IgG) VH: QVQLVQSGAEVVKPGASVKISCKASGYHFTGYFMNWVKQSPGQSLEWIGRIHPYDGDTFYNQKFQGKATLTVDKSSNTAHMELLSLTSEDFAVYYCTRYDGSRAMDYWGQGTTVTVSS VL: DIVLTQSPLSLAVSLGQPAIISCKASQSVSFAGTSLMHWYHQKPGQQPRLLIYRASNLEAGVPDRFSGSGSKTDFTLTISPVEAEDAATYYCQQSREYPYTFGGGTKLEIK | binds

Second part, the binder after the results:

Row | binding result | Binder
11 | binds | MYT0601 (antibody, V domains shown, IgG) VH: QVQLVQSGAEVVKPGASVKISCKASGHTFTGYFMNWVKQSPGQSLEWIGRIHPYDGDTFYNQKFQGKATLTVDKSSNTAHMELLSLTSEDFAVYYCTRYDGSRAMDYWGQGTTVTVSS VL: DIVLTQSPLSLAVSLGQPAIISCKASQSVSFAGTSLMHWYHQKPGQQPRLLIYRASNLEAGVPDRFSGSGSKTDFTLTISPVEAEDAATYYCQQSREYPYTFGGGTKLEIK
12 | binds | MYT0611 (antibody, V domains shown, IgG) VH: QVQLVQSGAEVVKPGASVKISCKASGYTFTGYFMNWVKQSPGQSLEWIGRHHPYDGDTFYNQKFQGKATLTVDKSSNTAHMELLSLTSEDFAVYYCTRYDGSRAMDYWGQGTTVTVSS VL: DIVLTQSPLSLAVSLGQPAIISCKASQSVSFAGTSLMHWYHQKPGQQPRLLIYRASNLEAGVPDRFSGSGSKTDFTLTISPVEAEDAATYYCQQSREYPYTFGGGTKLEIK
13 | binds | MYT0614 (antibody, V domains shown, IgG) VH: QVQLVQSGAEVVKPGASVKISCKASGYTFTGYFMNWVKQSPGQSLEWIGRIHPHDGDTFYNQKFQGKATLTVDKSSNTAHMELLSLTSEDFAVYYCTRYDGSRAMDYWGQGTTVTVSS VL: DIVLTQSPLSLAVSLGQPAIISCKASQSVSFAGTSLMHWYHQKPGQQPRLLIYRASNLEAGVPDRFSGSGSKTDFTLTISPVEAEDAATYYCQQSREYPYTFGGGTKLEIK
14 | binds | MYT0599 (antibody, V domains shown, IgG) VH: QVQLVQSGAEVVKPGASVKISCKAHGYTFTGYFMNWVKQSPGQSLEWIGRIHPYDGDTFYNQKFQGKATLTVDKSSNTAHMELLSLTSEDFAVYYCTRYDGSRAMDYWGQGTTVTVSS VL: DIVLTQSPLSLAVSLGQPAIISCKASQSVSFAGTSLMHWYHQKPGQQPRLLIYRASNLEAGVPDRFSGSGSKTDFTLTISPVEAEDAATYYCQQSREYPYTFGGGTKLEIK
15 | binds | MYT0605 (antibody, V domains shown, IgG) VH: QVQLVQSGAEVVKPGASVKISCKASGYTFTHYFMNWVKQSPGQSLEWIGRIHPYDGDTFYNQKFQGKATLTVDKSSNTAHMELLSLTSEDFAVYYCTRYDGSRAMDYWGQGTTVTVSS VL: DIVLTQSPLSLAVSLGQPAIISCKASQSVSFAGTSLMHWYHQKPGQQPRLLIYRASNLEAGVPDRFSGSGSKTDFTLTISPVEAEDAATYYCQQSREYPYTFGGGTKLEIK
16 | binds | MYT0617 (antibody, V domains shown, IgG) VH: QVQLVQSGAEVVKPGASVKISCKASGYTFTGYFMNWVKQSPGQSLEWIGRIHPYDGHTFYNQKFQGKATLTVDKSSNTAHMELLSLTSEDFAVYYCTRYDGSRAMDYWGQGTTVTVSS VL: DIVLTQSPLSLAVSLGQPAIISCKASQSVSFAGTSLMHWYHQKPGQQPRLLIYRASNLEAGVPDRFSGSGSKTDFTLTISPVEAEDAATYYCQQSREYPYTFGGGTKLEIK
17 | binds | MYT0616 (antibody, V domains shown, IgG) VH: QVQLVQSGAEVVKPGASVKISCKASGYTFTGYFMNWVKQSPGQSLEWIGRIHPYDHDTFYNQKFQGKATLTVDKSSNTAHMELLSLTSEDFAVYYCTRYDGSRAMDYWGQGTTVTVSS VL: DIVLTQSPLSLAVSLGQPAIISCKASQSVSFAGTSLMHWYHQKPGQQPRLLIYRASNLEAGVPDRFSGSGSKTDFTLTISPVEAEDAATYYCQQSREYPYTFGGGTKLEIK
18 | binds | MYT0597 (antibody, V domains shown, IgG) VH: QVQLVQSGAEVVKPGASVKISCHASGYTFTGYFMNWVKQSPGQSLEWIGRIHPYDGDTFYNQKFQGKATLTVDKSSNTAHMELLSLTSEDFAVYYCTRYDGSRAMDYWGQGTTVTVSS VL: DIVLTQSPLSLAVSLGQPAIISCKASQSVSFAGTSLMHWYHQKPGQQPRLLIYRASNLEAGVPDRFSGSGSKTDFTLTISPVEAEDAATYYCQQSREYPYTFGGGTKLEIK
19 | binds | MYT0612 (antibody, V domains shown, IgG) VH: QVQLVQSGAEVVKPGASVKISCKASGYTFTGYFMNWVKQSPGQSLEWIGRIAPYDGDTFYNQKFQGKATLTVDKSSNTAHMELLSLTSEDFAVYYCTRYDGSRAMDYWGQGTTVTVSS VL: DIVLTQSPLSLAVSLGQPAIISCKASQSVSFAGTSLMHWYHQKPGQQPRLLIYRASNLEAGVPDRFSGSGSKTDFTLTISPVEAEDAATYYCQQSREYPYTFGGGTKLEIK
20 | binds | MYT0620 (antibody, V domains shown, IgG) VH: QVQLVQSGAEVVKPGASVKISCKASGYTFTGYFMNWVKQSPGQSLEWIGRIHPYDGDTFHNQKFQGKATLTVDKSSNTAHMELLSLTSEDFAVYYCTRYDGSRAMDYWGQGTTVTVSS VL: DIVLTQSPLSLAVSLGQPAIISCKASQSVSFAGTSLMHWYHQKPGQQPRLLIYRASNLEAGVPDRFSGSGSKTDFTLTISPVEAEDAATYYCQQSREYPYTFGGGTKLEIK
21 | binds | MYT0615 (antibody, V domains shown, IgG) VH: QVQLVQSGAEVVKPGASVKISCKASGYTFTGYFMNWVKQSPGQSLEWIGRIHPYHGDTFYNQKFQGKATLTVDKSSNTAHMELLSLTSEDFAVYYCTRYDGSRAMDYWGQGTTVTVSS VL: DIVLTQSPLSLAVSLGQPAIISCKASQSVSFAGTSLMHWYHQKPGQQPRLLIYRASNLEAGVPDRFSGSGSKTDFTLTISPVEAEDAATYYCQQSREYPYTFGGGTKLEIK
